Experiments:
[1] = target: Chlamydomonas reinhardtii ATG3, wild type (Chlamydomonas reinhardtii); assay: non-reducing SDS-PAGE; purified ATG3 (about 2.5-3 ug) in 50 mM Tris-HCl pH 7.5, 25 °C, untreated or treated with DTTred, GSH, DTTox, H2O2 or Cu2+; stopped with βME-free loading buffer, 5 min at 65 °C; 12% or 15% gels, Coomassie; monomer against disulfide-linked dimer
[2] = target: the molecule itself; assay: as above

Chlamydomonas reinhardtii ATG3, wild type (enzyme)
stoichiometry N [1]: 2

B1: Saccharomyces cerevisiae ATG3, wild type (enzyme, UniProt P40344 1-310, looked up)
chain: MIRSTLSSWREYLTPITHKSTFLTTGQITPEEFVQAGDYLCHMFPTWKWNEESSDISYRDFLPKNKQFLIIRKVPCDKRAEQCVEVEGPDVIMKGFAEDGDEDDVLEYIGSETEHVQSTPAGGTKDSSIDDIDELIQDMEIKEEDENDDTEEFNAKGGLAKDMAQERYYDLYIAYSTSYRVPKMYIVGFNSNGSPLSPEQMFEDISADYRTKTATIEKLPFYKNSVLSVSIHPCKHANVMKILLDKVRVVRQRRRKELQEEQELDGVGDWEDLQDDIDDSLRVDQYLIVFLKFITSVTPSIQHDYTMEGW
notes: ATG3 (E2-like enzyme of the ATG8 conjugation system), Saccharomyces cerevisiae; catalytic Cys234; also called ScATG3; ScATG3^WT
stoichiometry N [2]: 2

Source: article PMC10756753, “Redox-mediated activation of ATG3 promotes ATG8 lipidation and autophagy progression in Chlamydomonas reinhardtii” (Plant Physiology, 2023)
